In publication PMC13170675, “A Wnt-induced conformational phospho-switch in DVL3 controls association with Frizzled receptors and Wnt/β-catenin signaling” (Science Advances, 2026):

B1: hDVL3 PDZ-IDR2-DEP (amino acids 243 to 496), nonphosphorylated (domain or fragment, human, UniProt Q92997 243-496, looked up)
chain: MSLNIITVTLNMEKYNFLGISIVGQSNERGDGGIYIGSIMKGGAVAADGRIEPGDMLLQVNEINFENMSNDDAVRVLREIVHKPGPITLTVAKCWDPSPRGCFTLPRSEPIRPIDPAAWVSHTAAMTGTFPAYGMSPSLSTITSTSSSITSSIPDTERLDDFHLSIHSDMAAIVKAMASPESGLEVRDRMWLKITIPNAFIGSDVVDWLYHNVEGFTDRREARKYASNLLKAGFIRHTVNKITFSEQCYYIFGD
notes: human Dishevelled 3 (DVL3), PDZ domain, IDR2 and DEP domain, amino acids 243 to 496; source: E. coli BL21 (DE3), purified (Ni-NTA, TEV cleavage, second Ni-NTA, anion exchange, SEC); not shown: His6, N-terminal, cleaved
B2: phosphorylated hDVL3 PDZ-IDR2-DEP (amino acids 243 to 496) (domain or fragment, human, UniProt Q92997 243-496, looked up)
chain: B1 chain
modifications: 8 to 19 phosphates present (native ESI-MS), on S/T residues of IDR2, by CK1ε
notes: human Dishevelled 3 (DVL3), PDZ domain, phosphorylated IDR2 and DEP domain, amino acids 243 to 496; also called PDZ-pIDR2-DEP; source: E. coli BL21 (DE3), purified; phosphorylated by CK1ε; not shown: His6, N-terminal, cleaved

Molecular target: the molecule itself
Experiment: native MS; native ESI-MS, 200 mM ammonium acetate buffer (pH 7.4); monomeric species are the main ones, homodimeric species detected

| Protein | binding result |
| --- | --- |
| B1 | binds |
| B2 | binds |
